Measurements published in patent US20150191730A1, “APTAMER-TARGETTED ANTIGEN DELIVERY” (ALBERT EINSTEIN COLLEGE OF MEDICINE OF YESHIVA UNIVERSITY, published 2015).

How the values were obtained:
mouse DEC205 (mouse) = mouse DEC205 (mouse) (UniProt Q60767); experiment: cell-based or functional assay
[1] = biological target: DEC205 (CD205, LY75), mouse, surface-expressed (Mus musculus, UniProt Q60767 Q60767:28-1723); experiment: flow; apparent; A20.Kb/mDEC205 cells; RPMI + 1 mg/mL ssDNA, 37 C, 15 min; one-site fit; details: tags: full-length, stably expressed on CHO (CHO/mDEC205) or A20.Kb/mDEC205 cells; label: Alexa Fluor 488 (5'); Mfold-predicted stem-loop with conserved UUCAUAA
Protocol: The minimized aptamer, min.2 (FIG. 3a), was chemically synthesized bearing a 3′ inverted dT for added serum stability and a 5′ thiol to facilitate subsequent chemical conjugations. When labeled with Alexa Fluor 488, this chemically synthesized aptamer performed as well as constructs produced by transcription (data not shown). Direct labeling of min.2 also allowed us to measure the apparent dissociation constant of this aptamer for cell-surface mDEC205 on A20 cells (23±6 nM; FIG. 3b). The specificity of Clone 1 and high affinity of its minimized form, min.2, constitute a promising basis for using this aptamer for targeted antigen delivery.
mDEC205 Cell Surface Binding Assay: A20.Kb cells or A20.Kb.mDEC205 cells which are engineered to express higher amounts of mDEC205 were washed with RPMI, resuspended at 1×10⁵ cells in 100 μL RPMI supplemented with 1 mg/mL ssDNA, and stored on ice while Alexa Fluor 488-conjugated min.2 and Alexa Fluor 488-conjugated cntrl.36 were prepared as described previously. After addition of refolded RNA to cells, the RNA-cell mixture was incubated for 15 minutes at 37° C., washed with and resuspended in flow cytometry buffer, and analyzed by flow cytometry. […]

Sequence of mouse DEC205 (mouse) (Q60767 28-1723): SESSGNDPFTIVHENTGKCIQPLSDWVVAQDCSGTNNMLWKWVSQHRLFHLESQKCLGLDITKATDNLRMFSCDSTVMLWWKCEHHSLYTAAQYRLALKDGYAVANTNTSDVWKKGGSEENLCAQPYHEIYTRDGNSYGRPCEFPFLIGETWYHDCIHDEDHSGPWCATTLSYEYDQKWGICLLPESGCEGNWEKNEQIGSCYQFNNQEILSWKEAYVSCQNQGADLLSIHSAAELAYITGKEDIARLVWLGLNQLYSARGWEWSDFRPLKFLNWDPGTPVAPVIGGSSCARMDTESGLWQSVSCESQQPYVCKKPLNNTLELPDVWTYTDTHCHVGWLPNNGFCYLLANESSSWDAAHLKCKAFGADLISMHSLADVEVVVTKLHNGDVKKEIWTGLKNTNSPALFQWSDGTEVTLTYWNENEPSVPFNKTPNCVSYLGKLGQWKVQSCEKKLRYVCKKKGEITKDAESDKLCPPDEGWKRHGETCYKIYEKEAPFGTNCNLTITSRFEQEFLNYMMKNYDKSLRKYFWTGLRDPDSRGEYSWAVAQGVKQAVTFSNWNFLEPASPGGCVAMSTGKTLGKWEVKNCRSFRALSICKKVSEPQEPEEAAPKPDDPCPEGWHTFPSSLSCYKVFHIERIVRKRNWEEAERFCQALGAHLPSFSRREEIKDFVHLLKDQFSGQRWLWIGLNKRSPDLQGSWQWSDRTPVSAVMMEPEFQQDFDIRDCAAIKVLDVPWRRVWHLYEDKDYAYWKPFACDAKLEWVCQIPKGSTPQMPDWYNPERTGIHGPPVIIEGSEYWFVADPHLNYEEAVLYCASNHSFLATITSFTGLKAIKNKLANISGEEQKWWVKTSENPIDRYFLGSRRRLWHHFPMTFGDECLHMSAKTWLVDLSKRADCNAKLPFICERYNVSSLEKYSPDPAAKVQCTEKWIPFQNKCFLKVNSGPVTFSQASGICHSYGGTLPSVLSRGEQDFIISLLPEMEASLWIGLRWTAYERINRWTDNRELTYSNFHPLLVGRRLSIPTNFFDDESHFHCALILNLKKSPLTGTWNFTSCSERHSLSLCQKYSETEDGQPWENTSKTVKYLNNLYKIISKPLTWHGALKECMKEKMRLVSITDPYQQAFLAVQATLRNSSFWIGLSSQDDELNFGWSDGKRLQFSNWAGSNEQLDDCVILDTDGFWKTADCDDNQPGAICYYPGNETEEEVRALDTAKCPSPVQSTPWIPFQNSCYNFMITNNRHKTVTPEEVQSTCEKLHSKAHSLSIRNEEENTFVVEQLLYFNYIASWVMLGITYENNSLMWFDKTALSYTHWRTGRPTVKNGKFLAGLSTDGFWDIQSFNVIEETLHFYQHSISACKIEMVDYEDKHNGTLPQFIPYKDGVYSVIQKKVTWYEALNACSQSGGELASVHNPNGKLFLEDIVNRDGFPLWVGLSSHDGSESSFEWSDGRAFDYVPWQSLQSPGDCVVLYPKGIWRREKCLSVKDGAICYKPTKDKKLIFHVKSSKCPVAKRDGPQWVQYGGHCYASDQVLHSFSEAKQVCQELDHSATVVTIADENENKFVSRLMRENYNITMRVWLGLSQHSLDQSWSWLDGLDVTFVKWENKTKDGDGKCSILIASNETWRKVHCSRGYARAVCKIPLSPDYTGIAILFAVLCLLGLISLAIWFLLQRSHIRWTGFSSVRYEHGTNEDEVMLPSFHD
Sequence of DEC205 (CD205, LY75), mouse, surface-expressed (Q60767 28-1723, one chain of several): as the sequence (Q60767 28-1723) above

| OT-I cell proliferation (CFSE dilution) after two days with antigen-treated CD11c+ splenocytes (mouse DEC205 (mouse)) [%] | Molecule | Kd [1] [nM] |
| --- | --- | --- |
| > 80 | NLDC145:OVA, recombinant fusion of OVA and anti-mDEC205 antibody clone NLDC145 | – |
| – | GGGAGGUGUGUUAGCACACGAUUCAUAAUCAGCUACCCUCCC (ssRNA, 2'-F pyrimidines; 3' idT; 5' thiol C6) [min.2] | 23 |
